Assay results as given in patent publication CN110885376A (SHANGHAI NOVAMAB BIOPHARMACEUTICALS CO LTD, dated 2020).

Molecular target: T1, CD20 (UniProt P11836 1-297, limits assumed)
T1 construct: whole, on cells; Endogenous CD20 of Raji cells; also called 白细胞分化抗原20; 细胞表面CD20
T1 sequence (looked up): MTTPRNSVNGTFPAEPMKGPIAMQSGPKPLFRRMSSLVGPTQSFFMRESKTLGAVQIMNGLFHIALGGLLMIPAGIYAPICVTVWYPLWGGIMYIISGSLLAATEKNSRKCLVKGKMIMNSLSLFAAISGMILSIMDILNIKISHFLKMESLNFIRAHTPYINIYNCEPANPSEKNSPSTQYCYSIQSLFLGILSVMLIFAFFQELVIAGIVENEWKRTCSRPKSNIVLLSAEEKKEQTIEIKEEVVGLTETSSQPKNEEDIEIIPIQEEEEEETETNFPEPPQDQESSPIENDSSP
Assay: flow cytometry on Raji cells (CD47 first blocked with Nb1902), anti-hFc-FITC

EC50: 5.67 µg/mL
B1: 利妥昔单抗 (antibody, human IgG1, kappa, L234A L235A, V domains shown)
VH: QVQLQQPGAELVKPGASVKMSCKASGYTFTSYNMHWVKQTPGRGLEWIGAIYPGNGDTSYNQKFKGKATLTADKSSSTAYMQLSSLTSEDSAVYYCARSTYYGGDWYFNVWGAGTTVTVSA
VL: QIVLSQSPAILSASPGEKVTMTCRASSSVSYIHWFQQKPGSSPKPWIYATSNLASGVPVRFSGSGSGTSYSLTISRVEAEDAATYYCQQWTSNPPTFGGGTKLEIKR
notes: also called 对照抗体利妥昔; rituximab
